These results are taken from US20150118184A1 (Chugai, published 2015).

To fix the notation:
T1: mouse LAMP5 having a V5 tag added to the N-terminal thereof, expressed on CHO cells (mLAMP5 CHO) (mouse, UniProt Q9D387 30-280)
T1 construct: also called mouse-origined LAMP5; V5-mLAMP5
T1 sequence: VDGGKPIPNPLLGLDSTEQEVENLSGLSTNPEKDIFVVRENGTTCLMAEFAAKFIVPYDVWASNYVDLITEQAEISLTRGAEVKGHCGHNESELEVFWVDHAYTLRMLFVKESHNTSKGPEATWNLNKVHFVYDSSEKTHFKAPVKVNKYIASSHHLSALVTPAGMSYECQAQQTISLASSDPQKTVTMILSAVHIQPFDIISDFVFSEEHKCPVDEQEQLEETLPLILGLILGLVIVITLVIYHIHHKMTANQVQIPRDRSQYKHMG

T2: LAMP5 (endogenous, on KHM-1B multiple myeloma cells and in cancer cell line lysates) (human, UniProt Q9UJQ1 30-280)
T2 construct: Endogenous LAMP5 of the cell lines; also called BAD-LAMP; C20orf103
T2 sequence: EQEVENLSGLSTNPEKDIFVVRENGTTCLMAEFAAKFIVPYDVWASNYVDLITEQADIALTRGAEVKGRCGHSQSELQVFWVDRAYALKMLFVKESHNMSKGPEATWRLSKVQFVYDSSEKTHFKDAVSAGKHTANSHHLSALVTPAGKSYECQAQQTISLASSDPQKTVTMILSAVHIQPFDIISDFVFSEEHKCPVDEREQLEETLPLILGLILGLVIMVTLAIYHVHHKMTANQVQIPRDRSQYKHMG

B1: anti-LAMP5 monoclonal antibody D1 (antibody, mouse IgG1, V domains shown)
VH: EIQLQQSGPDLVKPGASVKVSCKASGFAFSTYNMYWVKQSHGKSLEWIGYIDPYNGDITYNQKFKGKATLTVDKSSSTAYMHLNSLTSEDSAVYYCARRDYFYAMDYWGQGTSVTVSS
VL: DIVMTQSHKFMSTSVGDRVSITCKASQGVGTAVAWYQQKPGQSPKLLIYWASTRHTGVPDRFTGSGSGTDFTLSVTNVQSEDLADYFCHQYSSYPLTFGSGTKLELK
notes: also called clone D1; D1 antibody
B2: anti-LAMP5 monoclonal antibody D9 (antibody, V domains shown)
VH: EVKLVESGGGLVKPGGSLKLSCAASGFTFSSYAMSWVRQTPEKRLEWVASISSGGSTYYPDSVKGRFTISRDNARNILYLQMSSLRSEDTAMYYCARLITTRFAYWGQGTLVTVSA
VL: ENVLTQSPAIMSASPGEKVTMTCRASSSVSSSYLHWYQQKSGASPKLWIYSTSNLASGVPARFSGSGSGTSYSLTISSVEAEDAATYYCQQYSGYPLTFGSGTKLEIK
notes: also called clone D9; D9 antibody
B3: anti-LAMP5 monoclonal antibody D2 (antibody, mouse IgG1, V domains shown)
VH: EVKLEESGGGLVQPGGSMKLSCTASGFTFSDAWMDWVRQSPEKGLEWVAEIRGKADNHATYYAESVKGRFTISRDDSKSSVYLQMNSLRTEDTAIYYCIPYYRYAMDYWGQGTSVTVSS
VL: QIVLTQSPAIMSASPGEKVTITCTASSSVSYMHWFQQKPGTSPKLWIYATSYLASGVPTRFSGSGSGTSYSLTISRMEAEDAATYYCQQKSNYPWTFGGGTNLEIK
notes: also called clone D2; D2 antibody
B4: anti-LAMP5 monoclonal antibody D10 (antibody, V domains shown)
VH: B1 VH with D10E, F27Y, S30T, T31S, D57G, T59S
VL: B1 VL with S74T, V75I, H89Q
notes: also called clone D10; D10 antibody

Positions count from the first letter of the chain named.

In one experiment the target is T1, mouse LAMP5 having a V5 tag added to …. Briefly: FACS on mLAMP5 CHO cells, FITC anti-mouse IgG. On the procedure:
(§1) Binding of the anti-LAMP5 monoclonal antibody produced in Example 2 to LAMP5 and mLAMP5 was evaluated by FACS. First, LAMP5 CHO (Example 2) or mLAMP5 CHO was suspended in FACS/PBS (PBS(−) comprising 0.2% bovine serum albumin (BSA) and 0.1% sodium azide) followed by disseminating into the wells of a 96-well round bottom plate at 5×10⁴ cells per well. After adding anti-LAMP5 monoclonal antibody to each well to a final concentration of 10, 2, 0.4, 0.08 or 0.016 μg/ml, the mixture was allowed to react for 1 hour on ice. After reacting, the cell suspensions were washed with FACS/PBS and allowed to react for 1 hour with FITC-labeled anti-mouse IgG antibody on ice. After reacting, the cells were washed with FACS/PBS and then suspended in FACS/PBS comprising 10 μg/ml of propidium iodide (Sigma-Aldrich Co. LLC.). The staining intensity of the cells was measured with a flow cytometer. Only viable cells not stained with propidium iodide were used in data analysis. As a result, clones D1, D2, D9 and D10 all bound concentration-dependently to LAMP5 (FIG. 2A). Clones D1, D2 and D10 in particular bound strongly in comparison with clone D9 (FIG. 2A). […] Clone D10 only bound weakly to mLAMP5 (FIG. 2B).
Take B1: the binding result is “no binding (tested: 10 µg/ml (highest concentration tested))”. Same read-out and setting: then B2, with “no binding (tested: 10 µg/ml (highest concentration tested))”.

Another experiment deals with T2, LAMP5 (endogenous, on KHM-1B multiple …). Description: FACS on KHM-1B cells with or without IL-6 stimulation, 10 µg/mL antibody. As to the method: as §1
Next, LAMP5 expression was measured by FACS in KHM-1B cells (with or without IL-6 stimulation). FACS was carried out in the same manner as Example 4 using anti-LAMP5 monoclonal antibodies D1, D2, D9 and D10 and a negative reference in the form of IgG1κ (Pharmingen Inc., Cat. No. 553447) at concentrations of 10 μg/mL. As a result, LAMP5 was detected on the cell membrane of KHM-1B cells, and the expressed amount thereof was confirmed to be increased by IL-6 stimulation (FIG. 4).
For the molecule B3, the binding result is reported as “binds”. Same read-out and setting: the result for B1 reads “binds”; that for B4, “binds”; that for B2, “binds”.
